Laboratory results taken from patent publication US20230167182A1 (BIOSION, published 2023).
Substitutions are numbered along the chain they refer to.

T1: macaca IL6R-his protein (macaca mulatta)
T1 chain: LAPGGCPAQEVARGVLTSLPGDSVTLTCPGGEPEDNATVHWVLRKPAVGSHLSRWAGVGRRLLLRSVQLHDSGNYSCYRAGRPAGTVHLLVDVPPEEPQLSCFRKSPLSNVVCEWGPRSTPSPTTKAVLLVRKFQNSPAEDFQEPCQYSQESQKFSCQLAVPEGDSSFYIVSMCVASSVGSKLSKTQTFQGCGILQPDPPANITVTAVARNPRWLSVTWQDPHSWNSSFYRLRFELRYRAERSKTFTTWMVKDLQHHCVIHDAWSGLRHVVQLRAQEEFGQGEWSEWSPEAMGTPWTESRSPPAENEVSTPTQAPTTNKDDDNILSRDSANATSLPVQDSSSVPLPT

T2: human IL6R expressed on cell surface (human, UniProt P08887 20-468)
T2 construct: whole, on cells; also called cell surface human IL6R; U266 cells expressing human IL6R
T2 sequence (looked up): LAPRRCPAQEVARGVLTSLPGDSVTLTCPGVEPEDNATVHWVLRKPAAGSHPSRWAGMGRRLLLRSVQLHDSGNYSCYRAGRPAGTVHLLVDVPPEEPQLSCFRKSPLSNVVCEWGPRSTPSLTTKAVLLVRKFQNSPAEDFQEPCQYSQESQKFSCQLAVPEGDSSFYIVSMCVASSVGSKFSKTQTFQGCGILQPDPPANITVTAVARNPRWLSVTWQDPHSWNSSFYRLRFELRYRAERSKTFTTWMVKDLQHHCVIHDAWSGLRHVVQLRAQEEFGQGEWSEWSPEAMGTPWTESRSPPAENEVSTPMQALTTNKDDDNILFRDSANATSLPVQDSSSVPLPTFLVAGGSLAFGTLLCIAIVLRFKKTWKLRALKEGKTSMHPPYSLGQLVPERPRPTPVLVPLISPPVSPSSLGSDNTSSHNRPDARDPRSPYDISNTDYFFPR

B1: mouse anti-IL6R monoclonal antibody 1H9 (antibody, V domains shown)
VH: QVQLQQPGAELVKPGASVKLSCKASGYTFTSYWMHWVKLRPGQGLEWIGEINPTNGRTNYYEKFKNRATLTADKSSSTAYMQLSSLTFEDSAVYFCAKFHYSRWYFDVWGTGTTVTVSS
VL: DIVMTQSQKFMSTSVGDRVSITCKASQNVGTAVVWYQQKPGQSPKLLINPASNRYTGVPDRFTGSGSGTDFTLTISNMQSEDLADYFCQQYSSYPLTFGAGTKLELK
notes: Mouse hybridoma mAb
B2: mouse anti-IL6R monoclonal antibody 1B5 (antibody, V domains shown)
VH: QVQLQQPGAELVKPGASVKLSCKASGYTFTSYWMHWVKQRPGQGLEWIGEINPSNGRTNYNENFKSKATLTVDKSSSTAYMQLSSLTSEDSAVYYCARLNTHYVFDYWGQGTTLTVSS
VL: EIVLTQSPTILAASPGEKITFTCSVSSSISSNYLHWYQQKPGFSPKLLIYRTSNLASGVPARFSGSGSGTSYSLTIGTMEAEDVATYYCQQGSGIPFTFGSGTKLEIK
notes: Mouse hybridoma mAb
B3: mouse anti-IL6R monoclonal antibody 3C2 (antibody, V domains shown)
VH: B2 VH with A9T, S31T, M34I, N63H, Y80S, E89A, Y107S
VL: B2 VL with I10T, L11M, F21I, V25A, A61T, R62H
notes: Mouse hybridoma mAb
B4: mouse anti-IL6R monoclonal antibody 1A3 (antibody, V domains shown)
VH: B2 VH with G42A, Y60F, N63K, S66T, S77N, Y95S, A97L
VL: B2 VL with I10T, L11M, F21I, V25A, Y50S, A61T, E82G
notes: Mouse hybridoma mAb purified on Protein A
B5: mouse anti-IL6R monoclonal antibody 1G1 (antibody, V domains shown)
VH: B2 VH with Q39V, S54T, N63D, D73E, K74S, L83F
VL: B2 VL
notes: Mouse hybridoma mAb
B6: Tocilizumab (antibody, human IgG1, kappa, V domains shown)
VH: QVQLQESGPGLVRPSQTLSLTCTVSGYSITSDHAWSWVRQPPGRGLEWIGYISYSGITTYNPSLKSRVTMLRDTSKNQFSLRLSSVTAADTAVYYCARSLARTTAMDYWGQGSLVTVSS
VL: DIQMTQSPSSLSASVGDRVTITCRASQDISSYLNWYQQKPGKAPKLLIYYTSRLHSGVPSRFSGSGSGTDFTFTISSLQPEDIATYYCQQGNTLPYTFGQGTKVEIKR
notes: In house made; also called benchmark; Actemra

Assays:
macaca IL6R-his protein = biological target: T1, macaca IL6R-his protein; test: indirect ELISA on plate-coated macaca IL6R-his
Protocol: The anti-IL6R antibodies were tested for their cross-reaction with macaca IL6R. Briefly, 96-well micro plates were coated with 2 μg/ml macaca IL6R-his protein (in house made, amino acid sequence set forth in SEQ ID NO:45) in carbonate/bicarbonate buffer (pH 9.6), 100 μl/well, for 2 hours at 37° C. ELISA plates were washed once with wash buffer (PBS+0.05% v/v Tween-20, PBST) and then blocked with 200 μl/well blocking buffer (5% w/v non-fatty milk in PBST) for 2 hours at 37° C. Plates were washed 4 times and incubated with 100 μl/well serially diluted anti-IL6R antibodies of the disclosure or controls, starting at 66.67 nM with 5-fold serial dilution in PBST with 2.5% w/v non-fat milk, and incubated at 37° C. for 40 minutes. ELISA plates were washed 4 times again and incubated with 100 μl/well Peroxidase AffiniPure Goat Anti-Mouse IgG, Fcγ Fragment Specific (1:5000 dilution in PBST buffer, Jackson ImmunoResearch Laboratories, Inc., Cat #115-035-071) for 40 minutes at 37° C. After the final wash, plates were incubated with 100 μl/well TMB (InnoReagents). The reaction was stopped 3-10 minutes later at room temperature with 50 μl/well 1M H₂SO₄, and the absorbance of each well was read on a microplate reader using dual wavelength mode with 450 nm for TMB and 630 nm as the reference wavelength. Then the OD (450-630) values were plotted against antibody concentration. Data was analyzed using Graphpad Prism software and EC₅₀ values were reported.

human IL6R-Fc protein = biological target: T3, human IL6R-Fc protein (human, biotin-labeled in the ELISAs (sites not given)); test: ligand blocking ELISA: antibody pre-incubated with biotin-labeled human IL6R-Fc, added to plate-coated human IL6 (blocked ligand: human IL6)
T3 construct: In house made; also called biotin-labeled human IL6R-Fc protein
Protocol: The next day, anti-IL6R antibodies or controls were diluted with biotin labeled human IL6R-Fc protein (prepared in house, SEQ ID NO: 43, 39.5 ng/ml in 2.5% w/v non-fatty milk in PBST), starting at 100 nM with a 4-fold serial dilution, and incubated at room temperature for 40 minutes. […] Plates were washed for 4 times using wash buffer, and added and incubated with 100 μl/well of streptavidin conjugated HRP (1:10000 dilution in PBST buffer, Jackson ImmunoResearch Laboratories, Inc., Cat #016-030-084) for 40 minutes at 37° C. Plates were washed again using wash buffer. Finally, TMB was added and the reaction was stopped using 1M H₂SO₄. The absorbance was read on a microplate reader using dual wavelength mode with 450 nm for TMB and 630 nm as the reference wavelength, and then the OD (450-630) values were plotted against antibody concentration. Data was analyzed using Graphpad Prism software and IC₅₀ values were reported.

[1] = biological target: T2, human IL6R expressed on cell surface; test: cell-based binding FACS on U266 cells
Protocol: The binding activities of the mouse anti-IL6R antibodies to IL6R expressed on cell surface were tested by flow cytometry (FACS). Briefly, human myeloma cells U266 (ATCC® TIB-196™) were harvested from cell culture flasks, washed twice and resuspended in phosphate buffered saline (PBS) containing 2% v/v Fetal Bovine Serum (FACS buffer). 2×10⁵ U266 cells per well were incubated in 96 well-plates with 100 μl of the anti-IL6R antibodies or controls at various concentrations (starting at 40 nM with a 3-fold serial dilution in FACS buffer) for 40 minutes on ice. Cells were washed twice with FACS buffer, and added with 100 μL/well R-Phycoerythrin AffiniPure F(ab′)₂ Fragment Goat Anti-Mouse IgG (H+L) (1:1000 dilution in FACS buffer, Jackson ImmunoResearch Laboratories, Inc., Cat #115-116-146). Following an incubation of 40 minutes at 4° C. in dark, cells were washed three times and resuspended in FACS buffer. Fluorescence was measured using a Becton Dickinson FACS Canto II-HTS equipment. Data was analyzed using Graphpad Prism software and EC₅₀ values were reported.

Row | Binder | EC50 (macaca IL6R-his protein) | IC50 (human IL6R-Fc protein) | EC50 [1]
1 | B1 | 0.341 nM |  | 
2 | B2 |  | 0.697 nM | 
3 | B3 |  |  | 0.286 nM
4 | B4 |  | 0.807 nM | 
5 | B5 | 0.501 nM |  | 0.34 nM
6 | B6 | 0.0575 nM | 2.33 nM | 1.49 nM
